Source: patent publication US20150344570A1 (published 2015)

T1: FcγRIIb extracellular domain with C-terminal His tag (human, UniProt P31994 43-217)
T1 construct: extracellular domain; Soluble receptor used as analyte in Biacore; also called FcgRIIb; CD32B
T1 sequence (looked up): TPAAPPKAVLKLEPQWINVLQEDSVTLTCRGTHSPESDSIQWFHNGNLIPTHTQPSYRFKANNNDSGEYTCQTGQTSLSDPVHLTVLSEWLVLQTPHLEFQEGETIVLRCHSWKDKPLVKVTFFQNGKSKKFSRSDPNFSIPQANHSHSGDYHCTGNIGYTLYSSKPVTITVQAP

B1: GpH7-A5/GpH7-B3 variant V266_20W/GpL16-k0 (antibody, human IgG1, kappa)
heavy 1: not shown
heavy 2: not shown
light: DIVMTQSPLSLPVTPGEPASISCQASESLVHSNRNTYLHWYLQKPGQSPQLLIYKVSNRFSGVPDRFSGSGSGTDFTLKISRVEAEDVGVYYCSQNTHVPPTFGQGTKVEIERTVAAPSVFIFPPSDEQLKSGTASVVCLLNNFYPREAKVQWKVDNALQSGNSQESVTEQDSKDSTYSLSSTLTLSKADYEKHKVYACEVTHQGLSSPVTKSFNRGEC
notes: Heterodimerized anti-glypican-3 IgG1; mutation in the GpH7-B3 chain only; also called He Ab V266W
B2: GpH7-A5/GpH7-B3 variant V266_15Y/GpL16-k0 (antibody, human IgG1, kappa)
heavy 1: not shown
heavy 2: not shown
light: B1 light
notes: Heterodimerized anti-glypican-3 IgG1; mutation in the GpH7-B3 chain only; also called He Ab V266Y
B3: GpH7-A5/GpH7-B3 variant S267_05P/GpL16-k0 (antibody, human IgG1, kappa)
heavy 1: not shown
heavy 2: not shown
light: B1 light
notes: Heterodimerized anti-glypican-3 IgG1; mutation in the GpH7-B3 chain only; also called He Ab S267P
B4: GpH7-A5/GpH7-B3 variant E269_15Y/GpL16-k0 (antibody, human IgG1, kappa)
heavy 1: not shown
heavy 2: not shown
light: B1 light
notes: Heterodimerized anti-glypican-3 IgG1; mutation in the GpH7-B3 chain only; also called He Ab E269Y
B5: GpH7-A5/GpH7-B3 variant E269_08L/GpL16-k0 (antibody, human IgG1, kappa)
heavy 1: not shown
heavy 2: not shown
light: B1 light
notes: Heterodimerized anti-glypican-3 IgG1; mutation in the GpH7-B3 chain only; also called He Ab E269L
B6: GpH7-A5/GpH7-B3 variant E269_05P/GpL16-k0 (antibody, human IgG1, kappa)
heavy 1: not shown
heavy 2: not shown
light: B1 light
notes: Heterodimerized anti-glypican-3 IgG1; mutation in the GpH7-B3 chain only; also called He Ab E269P
B7: GpH7-A5/GpH7-B3 variant E269_03V/GpL16-k0 (antibody, human IgG1, kappa)
heavy 1: not shown
heavy 2: not shown
light: B1 light
notes: Heterodimerized anti-glypican-3 IgG1; mutation in the GpH7-B3 chain only; also called He Ab E269V
B8: GpH7-A5/GpH7-B3 variant S267_18N/GpL16-k0 (antibody, human IgG1, kappa)
heavy 1: not shown
heavy 2: not shown
light: B1 light
notes: Heterodimerized anti-glypican-3 IgG1; mutation in the GpH7-B3 chain only; also called He Ab S267N
B9: GpH7-A5/GpH7-B3 variant E269_16H/GpL16-k0 (antibody, human IgG1, kappa)
heavy 1: not shown
heavy 2: not shown
light: B1 light
notes: Heterodimerized anti-glypican-3 IgG1; mutation in the GpH7-B3 chain only; also called He Ab E269H
B10: GpH7-A5/GpH7-B3 variant E269_11K/GpL16-k0 (antibody, human IgG1, kappa)
heavy 1: not shown
heavy 2: not shown
light: B1 light
notes: Heterodimerized anti-glypican-3 IgG1; mutation in the GpH7-B3 chain only; also called He Ab E269K
B11: GpH7-A5/GpH7-B3 variant S267_12R/GpL16-k0 (antibody, human IgG1, kappa)
heavy 1: not shown
heavy 2: not shown
light: B1 light
notes: Heterodimerized anti-glypican-3 IgG1; mutation in the GpH7-B3 chain only; also called He Ab S267R
B12: GpH7-A5/GpH7-B3 variant H268_08L/GpL16-k0 (antibody, human IgG1, kappa)
heavy 1: not shown
heavy 2: not shown
light: B1 light
notes: Heterodimerized anti-glypican-3 IgG1; mutation in the GpH7-B3 chain only; also called He Ab H268L
B13: GpH7-A5/GpH7-B3 variant E269_12R/GpL16-k0 (antibody, human IgG1, kappa)
heavy 1: not shown
heavy 2: not shown
light: B1 light
notes: Heterodimerized anti-glypican-3 IgG1; mutation in the GpH7-B3 chain only; also called He Ab E269R
B14: GpH7-A5/GpH7-B3 variant H268_14T/GpL16-k0 (antibody, human IgG1, kappa)
heavy 1: not shown
heavy 2: not shown
light: B1 light
notes: Heterodimerized anti-glypican-3 IgG1; mutation in the GpH7-B3 chain only; also called He Ab H268T
B15: GpH7-A5/GpH7-B3 variant E269_07I/GpL16-k0 (antibody, human IgG1, kappa)
heavy 1: not shown
heavy 2: not shown
light: B1 light
notes: Heterodimerized anti-glypican-3 IgG1; mutation in the GpH7-B3 chain only; also called He Ab E269I
B16: GpH7-A5/GpH7-B3 variant S267_11K/GpL16-k0 (antibody, human IgG1, kappa)
heavy 1: not shown
heavy 2: not shown
light: B1 light
notes: Heterodimerized anti-glypican-3 IgG1; mutation in the GpH7-B3 chain only; also called He Ab S267K
B17: GpH7-A5/GpH7-B3 variant V266_16H/GpL16-k0 (antibody, human IgG1, kappa)
heavy 1: not shown
heavy 2: not shown
light: B1 light
notes: Heterodimerized anti-glypican-3 IgG1; mutation in the GpH7-B3 chain only; also called He Ab V266H
B18: GpH7-A5/GpH7-B3 variant S267_16H/GpL16-k0 (antibody, human IgG1, kappa)
heavy 1: not shown
heavy 2: not shown
light: B1 light
notes: Heterodimerized anti-glypican-3 IgG1; mutation in the GpH7-B3 chain only; also called He Ab S267H

Biological target: T2, FcγRIa extracellular domain with C-terminal His tag (human, UniProt P12314 16-292)
T2 construct: extracellular domain; Soluble receptor used as analyte in Biacore; also called FcgRI; FcgRIa
T2 sequence (P12314 16-292): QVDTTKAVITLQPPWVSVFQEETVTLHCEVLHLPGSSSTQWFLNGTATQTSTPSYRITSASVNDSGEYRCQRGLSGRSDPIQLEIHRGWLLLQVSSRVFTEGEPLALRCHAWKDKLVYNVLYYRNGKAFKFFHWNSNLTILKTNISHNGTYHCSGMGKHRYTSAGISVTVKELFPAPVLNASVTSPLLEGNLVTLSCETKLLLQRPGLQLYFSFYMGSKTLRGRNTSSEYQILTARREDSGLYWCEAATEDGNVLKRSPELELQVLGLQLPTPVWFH
Test: SPR Biacore, antibody captured on antigen-peptide chip, FcγR as analyte

Row | He/Con_1a | Binder
1 | 91.4 relative, GpH7-A5/GpH7-B3/GpL16-k0 = 100 | B1
2 | 93.3 relative, GpH7-A5/GpH7-B3/GpL16-k0 = 100 | B2
3 | 91.8 relative, GpH7-A5/GpH7-B3/GpL16-k0 = 100 | B3
4 | 106 relative, GpH7-A5/GpH7-B3/GpL16-k0 = 100 | B4
5 | 104 relative, GpH7-A5/GpH7-B3/GpL16-k0 = 100 | B5
6 | 102 relative, GpH7-A5/GpH7-B3/GpL16-k0 = 100 | B6
7 | 103 relative, GpH7-A5/GpH7-B3/GpL16-k0 = 100 | B7
8 | 102 relative, GpH7-A5/GpH7-B3/GpL16-k0 = 100 | B8
9 | 106 relative, GpH7-A5/GpH7-B3/GpL16-k0 = 100 | B9
10 | 95.2 relative, GpH7-A5/GpH7-B3/GpL16-k0 = 100 | B10
11 | 92.7 relative, GpH7-A5/GpH7-B3/GpL16-k0 = 100 | B11
12 | 107 relative, GpH7-A5/GpH7-B3/GpL16-k0 = 100 | B12
13 | 97.1 relative, GpH7-A5/GpH7-B3/GpL16-k0 = 100 | B13
14 | 112 relative, GpH7-A5/GpH7-B3/GpL16-k0 = 100 | B14
15 | 103 relative, GpH7-A5/GpH7-B3/GpL16-k0 = 100 | B15
16 | 93.3 relative, GpH7-A5/GpH7-B3/GpL16-k0 = 100 | B16
17 | 89.1 relative, GpH7-A5/GpH7-B3/GpL16-k0 = 100 | B17
18 | 100 relative, GpH7-A5/GpH7-B3/GpL16-k0 = 100 | B18

Biological target: T1, FcγRIIb extracellular domain with …
Test: as above

Row | He/Con_2b | Binder
19 | 71.9 relative, GpH7-A5/GpH7-B3/GpL16-k0 = 100 | B1
20 | 49.4 relative, GpH7-A5/GpH7-B3/GpL16-k0 = 100 | B2
21 | 31.5 relative, GpH7-A5/GpH7-B3/GpL16-k0 = 100 | B3
22 | 44.7 relative, GpH7-A5/GpH7-B3/GpL16-k0 = 100 | B4
23 | 42.9 relative, GpH7-A5/GpH7-B3/GpL16-k0 = 100 | B5
24 | 52.6 relative, GpH7-A5/GpH7-B3/GpL16-k0 = 100 | B6
25 | 45.1 relative, GpH7-A5/GpH7-B3/GpL16-k0 = 100 | B7
26 | 47.7 relative, GpH7-A5/GpH7-B3/GpL16-k0 = 100 | B8
27 | 38.5 relative, GpH7-A5/GpH7-B3/GpL16-k0 = 100 | B9
28 | 17.8 relative, GpH7-A5/GpH7-B3/GpL16-k0 = 100 | B10
29 | 11.3 relative, GpH7-A5/GpH7-B3/GpL16-k0 = 100 | B11
30 | 67.8 relative, GpH7-A5/GpH7-B3/GpL16-k0 = 100 | B12
31 | 25.2 relative, GpH7-A5/GpH7-B3/GpL16-k0 = 100 | B13
32 | 86 relative, GpH7-A5/GpH7-B3/GpL16-k0 = 100 | B14
33 | 43.9 relative, GpH7-A5/GpH7-B3/GpL16-k0 = 100 | B15
34 | 12.2 relative, GpH7-A5/GpH7-B3/GpL16-k0 = 100 | B16
35 | 57.2 relative, GpH7-A5/GpH7-B3/GpL16-k0 = 100 | B17
36 | 65.9 relative, GpH7-A5/GpH7-B3/GpL16-k0 = 100 | B18
